According to publication PMC6166713:

How the values were obtained:
[1] = target: GST-WASP(201–321) K225A/K226A/R227A (UniProt P42768); test: BLI; Octet Red; GST-WASP variants loaded on anti-GST sensors (10 μg/ml), dipped into a dilution range of Cdc42·GMPPNP; 50 mM Tris-HCl pH 7.5, 150 mM NaCl, 1 mM MgCl2, 0.02% Tween 20, 0.1% BSA, 0.05% sodium azide, 25 °C; GST-alone sensors subtracted
[2] = target: GST-WASP(201–321) K226A (UniProt P42768); test: as above
[3] = target: GST-WASP(201–321) K232A (UniProt P42768); test: scintillation proximity assay (SPA); 5 nM GST-WASP variant immobilised on protein A SPA fluoromicrospheres via an anti-GST antibody; varying concentrations of [3H]GTP·Cdc42; direct binding isotherm; apparent Kd; low-salt buffer
[4] = target: GST-WASP(201–321) K231A/K232A (UniProt P42768); test: as above
[5] = target: GST-WASP(201–321) K231A (UniProt P42768); test: as above
[6] = target: GST-WASP(201–321) K225A/K226A (UniProt P42768); test: as above
[7] = target: GST-WASP(201–321) R227A (UniProt P42768); test: as above
[8] = target: GST-WASP(201–321) K225A (UniProt P42768); test: as above
[9] = target: GST-WASP(201–321) K225A/K226A/R227A (UniProt P42768); test: as above
[10] = target: GST-WASP(201–321) K230A/K232A (UniProt P42768); test: as above
[11] = target: GST-WASP(201–321) K225A/R227A (UniProt P42768); test: as above
[12] = target: GST-WASP(201–321) K225A/K226A/R227A/K230A/K231A/K232A (UniProt P42768); test: as above
[13] = target: GST-WASP(201–321) K230A/K231A (UniProt P42768); test: as above
[14] = target: GST-WASP(201–321) K230A (UniProt P42768); test: as above
[15] = target: GST-WASP(201–321) K230A/K231A/K232A (UniProt P42768); test: as above
[16] = target: GST-WASP(201–321) K226A (UniProt P42768); test: as above
[17] = target: GST-WASP(201–321) wild type (UniProt P42768); test: as above
[18] = target: GST-WASP(201–321) K226A/R227A (UniProt P42768); test: as above

Kd [1]: 0.0792 µM
koff [1]: 0.042 s⁻¹
kon [1]: 540000 M⁻¹ s⁻¹
Kd [2]: 0.0544 µM
koff [2]: 0.0338 s⁻¹
kon [2]: 676000 M⁻¹ s⁻¹
Kd [3]: 12.2 µM
Kd [4]: 21.7 µM
Kd [5]: 12.4 µM
Kd [6]: 7.4 µM
Kd [7]: 4.3 µM
Kd [8]: 2.8 µM
Kd [9]: 8.8 µM
Kd [10]: 18.4 µM
Kd [11]: 7.5 µM
Kd [12]: 98.6 µM
Kd [13]: 12.9 µM
Kd [14]: 9.7 µM
Kd [15]: 36 µM
Kd [16]: 5.4 µM
Kd [17]: 0.5 µM
Kd [18]: 5.7 µM
Substance: Cdc42 Δ7 Q61L (from UniProt P60953 1-191) (natural protein)
